For 24 sequences, activity (% mutant alleles) results are on record in patent publication US20140087426.

Assay in all cases: cell_activity
For data set [1], the system named is miR-1-1 TALEN right (synthetic (Xanthomonas TALE)). As to conditions: 64/66, as pair.
The test system of data set [2] is gnrh3 TALEN right (synthetic (Xanthomonas TALE)). As to conditions: 6/33, as pair, 21-bp spacer.
The subject of data set [3] is gria3a TALEN left T15A (synthetic (Xanthomonas TALE)). As to conditions: mean of 3.
Data set [4] concerns gria3a TALEN left -T15 (synthetic (Xanthomonas TALE)). As to conditions: mean of 3.
Data set [5] relates to gria3a TALEN left G2T (synthetic (Xanthomonas TALE)). As to conditions: mean of 3.
In data set [6] the test system is gria3a TALEN left A7C (synthetic (Xanthomonas TALE)). As to conditions: mean of 3.
For data set [7], the system named is gria3a TALEN left T15C (synthetic (Xanthomonas TALE)). As to conditions: mean of 3.
In data set [8] the test system is gria3a TALEN left T8C (synthetic (Xanthomonas TALE)). As to conditions: mean of 3.
The subject of data set [9] is gria3a TALEN left G2A (synthetic (Xanthomonas TALE)). As to conditions: mean of 3.
The subject of data set [10] is gria3a TALEN left CLRA (synthetic (Xanthomonas TALE)). As to conditions: mean of 3.
Data set [11] deals with gria3a TALEN left A7T (synthetic (Xanthomonas TALE)). As to conditions: mean of 3.
Data set [12] deals with gria3a TALEN left T8G (synthetic (Xanthomonas TALE)). As to conditions: mean of 3.
In data set [13] the test system is gria3a TALEN left -G2 (synthetic (Xanthomonas TALE)). As to conditions: mean of 3, nearly abolished.
Data set [14] relates to gria3a TALEN left C1T (synthetic (Xanthomonas TALE)). As to conditions: mean of 3.
Data set [15] deals with gria3a TALEN left (synthetic (Xanthomonas TALE)). As to conditions: mean of 3; with right TALEN, zebrafish embryos; Table 4: 49/55.
In data set [16] the test system is gria3a TALEN left G2C (synthetic (Xanthomonas TALE)). As to conditions: mean of 3.
Data set [17] relates to gria3a TALEN left CLRT (synthetic (Xanthomonas TALE)). As to conditions: mean of 3.
For data set [18], the system named is gria3a TALEN left CLRG (synthetic (Xanthomonas TALE)). As to conditions: mean of 3.
Data set [19] relates to gria3a TALEN left T15G (synthetic (Xanthomonas TALE)). As to conditions: mean of 3.
Data set [20] concerns gria3a TALEN left T8A (synthetic (Xanthomonas TALE)). As to conditions: 0/32 in 3.
The test system of data set [21] is gria3a TALEN left C1A (synthetic (Xanthomonas TALE)). As to conditions: mean of 3.
In data set [22] the test system is gria3a TALEN left -T8 (synthetic (Xanthomonas TALE)). As to conditions: 0/64 in 3.
In data set [23] the test system is gria3a TALEN left C1G (synthetic (Xanthomonas TALE)). As to conditions: mean of 3.
The test system of data set [24] is gria3a TALEN left -C1 (synthetic (Xanthomonas TALE)). As to conditions: mean of 3.
Data set [25] relates to gria3a TALEN left A7G (synthetic (Xanthomonas TALE)). As to conditions: mean of 3.
Data set [26] deals with gria3a TALEN left -A7 (synthetic (Xanthomonas TALE)). As to conditions: mean of 3, nearly abolished.
The test system of data set [27] is miR-451 TALEN right (synthetic (Xanthomonas TALE)). As to conditions: 2/47, as pair, 22-bp spacer.
Data set [28] concerns miR-214 TALEN right (synthetic (Xanthomonas TALE)). As to conditions: 25/47, as pair.
Data set [29] deals with kiss2 TALEN left (synthetic (Xanthomonas TALE)). As to conditions: 69/69, as pair.
The test system of data set [30] is kiss1r TALEN left (synthetic (Xanthomonas TALE)). As to conditions: 22/43, as pair.
Data set [31] concerns kiss2r TALEN left (synthetic (Xanthomonas TALE)). As to conditions: 3/45, as pair, 21-bp spacer.
Data set [32] has as its system kiss1 TALEN right (synthetic (Xanthomonas TALE)). As to conditions: 32/40, as pair.
The subject of data set [33] is tnikb TALEN right (synthetic (Xanthomonas TALE)). As to conditions: 18/39, as pair.
Data set [34] deals with miR-214 TALEN left (synthetic (Xanthomonas TALE)). As to conditions: 25/47, as pair.
For data set [35], the system named is kiss2 TALEN right (synthetic (Xanthomonas TALE)). As to conditions: 69/69, as pair.
For data set [36], the system named is gnrh3 TALEN left (synthetic (Xanthomonas TALE)). As to conditions: 6/33, as pair, 21-bp spacer.
In data set [37] the test system is spexin TALEN right (synthetic (Xanthomonas TALE)). As to conditions: 33/36, as pair.
For data set [38], the system named is spexin TALEN left (synthetic (Xanthomonas TALE)). As to conditions: 33/36, as pair.
Data set [39] relates to miR-451 TALEN left (synthetic (Xanthomonas TALE)). As to conditions: 2/47, as pair, 22-bp spacer.
In data set [40] the test system is gria3a TALEN right (synthetic (Xanthomonas TALE)). As to conditions: 49/55, as pair, zebrafish embryos.
In data set [41] the test system is miR-1-2 TALEN right (synthetic (Xanthomonas TALE)). As to conditions: 34/41, as pair.
Data set [42] deals with tnikb TALEN left (synthetic (Xanthomonas TALE)). As to conditions: 18/39, as pair.
Data set [43] relates to kiss1r TALEN right (synthetic (Xanthomonas TALE)). As to conditions: 22/43, as pair.
Data set [44] has as its system kiss1 TALEN left (synthetic (Xanthomonas TALE)). As to conditions: 32/40, as pair.
Data set [45] deals with kiss2r TALEN right (synthetic (Xanthomonas TALE)). As to conditions: 3/45, as pair, 21-bp spacer.
For data set [46], the system named is miR-1-2 TALEN left (synthetic (Xanthomonas TALE)). As to conditions: 34/41, as pair.
In data set [47] the test system is miR-1-1 TALEN left (synthetic (Xanthomonas TALE)). As to conditions: 64/66, as pair.

Take “GTATGTATCCCAGGTGA (double strand) [miR-1-1 right site]”: the activity (% mutant alleles) in data set [1] stood at 97. In the case of “GTCCAGTTGTTGCTGTTA (double strand) [gnrh3 right site]”, the activity (% mutant alleles) in data set [2] was found to be 18.2.

For “TCGTCCAATAGCTTCTC (double strand) [gria3a left site]”, the activity (% mutant alleles) in data set [3] was 20.8; in data set [4] it was 71.9; in data set [5], 52.6; in data set [6], 40.1; in data set [7], 3.1; in [8], 21.9. Moreover, the activity (% mutant alleles) worked out at 17.9 in [9]; 76 in data set [10]; 71.9 in data set [11]; 14.6 in data set [12]; 1.6 in data set [13]; 2.1 in [14]. In addition, the activity (% mutant alleles) in [15] was 84.2; in [16], 12.1; in data set [17], 63.1; in data set [18], 2.2; in [19], 65.6; in data set [20] it was 0. The activity (% mutant alleles) worked out at 33.3 in data set [21]; 0 in data set [22]; 79.2 in [23]; 30.7 in data set [24]; 82.3 in data set [25]; 0.5 in data set [26]. In data set [27], “CTGAGTTTAGTAATGGA (double strand) [miR-451 right site]” showed an activity (% mutant alleles) of 4.3. Take “CAGGCAGACAGATGGCA (double strand) [miR-214 right site]”: the activity (% mutant alleles) in data set [28] worked out at 53.2. For “TGATTCTCTTCATGTCTG (double strand) [kiss2 left site]”, the activity (% mutant alleles) in data set [29] stood at 100. In data set [30], “TTCATGTGCAAATTTGT (double strand) [kiss1r left site]” came in with an activity (% mutant alleles) of 51.2.

For “TAACCTAATAGTCATCTA (double strand) [kiss2r left site]”, the activity (% mutant alleles) in [31] was determined as 6.7. “CTTAGAAGGTAAGTTCA (double strand) [kiss1 right site]” showed an activity (% mutant alleles) in data set [32] of 80. In [33], “ATTTTTGAGCTGGTGGA (double strand) [tnikb right site]” registered an activity (% mutant alleles) of 46.2. “TGCAGAACTTCCTGCAC (double strand) [miR-214 left site]” had an activity (% mutant alleles) in data set [34] of 53.2.

As for “CAGCTATGAGAGCAATA (double strand) [kiss2 right site]”, in [35], the activity (% mutant alleles) is 100. For “TGTTTTAGTTTTAGCATG (double strand) [gnrh3 left site]”, in data set [36], the activity (% mutant alleles) was determined as 18.2. For “AATGTCATGCAATGTTA (double strand) [spexin right site]”, in [37], the activity (% mutant alleles) turned out to be 91.7. Turning to “TTTGTGTCCCATTCCT (double strand) [spexin left site]”, in data set [38], the activity (% mutant alleles) turned out to be 91.7. “TCGCTGTGACAGAGAGA (double strand) [miR-451 left site]” had an activity (% mutant alleles) in data set [39] of 4.3. Regarding “GAGTTTCTGCTCTTTA (double strand) [gria3a right site]”, the activity (% mutant alleles) in data set [40] was 89.1. In data set [41], “GTATGTATTCTTGGTCA (double strand) [miR-1-2 right site]” displayed an activity (% mutant alleles) of 82.9.

Consider “TGTTATTTTCTCCCCT (double strand) [tnikb left site]”, for which, in [42], the activity (% mutant alleles) is 46.2. Turning to “GTAATAATAGAACCTCA (double strand) [kiss1r right site]”, in data set [43], the activity (% mutant alleles) was 51.2. “TACACACAAACCCCTCT (double strand) [kiss1 left site]” displayed an activity (% mutant alleles) in data set [44] of 80. Turning to “GATGAAGACGGTTACAAA (double strand) [kiss2r right site]”, the activity (% mutant alleles) in [45] was 6.7. Sequence “TATGAACATATAAAAGC (double strand) [miR-1-2 left site]” displayed an activity (% mutant alleles) in [46] of 82.9. In turn, “TATGAACAAGAGCAGC (double strand) [miR-1-1 left site]” came in with an activity (% mutant alleles) in [47] of 97.
